Usually Kd stands for the concentration at which binding is half-saturated. A lower Kd goes with tighter binding. One may read the koff as the rate constant with which the complex falls apart. Usually kon stands for a measure of how fast the partners come together. Higher therefore signals fast association.

Data on 9 molecules can be found in patent publication US20250136677A1 (ZOETIS SERVICES, published 2025).

The target of assay [1] is T1, wildtype feline IL-31 protein (Feline_IL31_wildtype) (feline).
T1 chain: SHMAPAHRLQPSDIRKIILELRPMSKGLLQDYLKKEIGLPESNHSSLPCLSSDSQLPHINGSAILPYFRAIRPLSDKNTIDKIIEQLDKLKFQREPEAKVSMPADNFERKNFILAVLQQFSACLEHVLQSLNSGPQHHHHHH
Nature of the assay: cell-based or functional assay.

Assay [2] deals with T2, canine IL-31 protein (Canine_IL31) (canine).
T2 chain: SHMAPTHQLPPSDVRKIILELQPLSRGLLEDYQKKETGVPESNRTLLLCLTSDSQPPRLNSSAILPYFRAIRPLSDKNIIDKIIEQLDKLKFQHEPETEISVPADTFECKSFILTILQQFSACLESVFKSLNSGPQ
Nature of the assay: cell-based or functional assay.

Assay [3] addresses T2, canine IL-31 protein (Canine_IL31). Nature of the assay: SPR (Biacore), IL-31 on chip, 1:1 fit.
For assay [4], the target named is T1, wildtype feline IL-31 protein …. Nature of the assay: cell-based or functional assay.
Assay [5] has the same target. Description: SPR (Biacore), IL-31 on chip, 1:1 fit. In outline:
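IL-31 was amine-coupled (NHS/EDC) to the chip at 5 μg/mL and quenched with ethanolamine, and candidate mAbs were flowed over it as analytes. Binding curves were fitted to a 1:1 model.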

Assay [6] has as its target T3, equine IL-31 protein (Equine_IL31) (equine).
T3 construct: Recombinant equine IL-31
T3 chain: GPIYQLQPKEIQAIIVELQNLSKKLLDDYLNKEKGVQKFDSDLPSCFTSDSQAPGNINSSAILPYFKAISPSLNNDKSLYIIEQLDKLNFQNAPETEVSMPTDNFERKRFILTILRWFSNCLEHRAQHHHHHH
Description: SPR (Biacore), IL-31 surface, single antibody concentration. The procedure:
(§1) For the indirect ELISA method, antibody binding to wildtype and feline IL-31 15H05 mutant proteins was assessed. All nine canine monoclonal antibodies (ZIL1, ZIL8, ZIL8, ZIL11, ZIL69, ZIL94, ZIL154, ZIL159, and ZIL171) were capable of binding to wildtype feline IL-31 and binding was impacted by mutations in the mAb 15H05 epitope region confirming the correct binding phenotype determined during the initial screening used to identify them. In comparison, the 11E12 antibody bound to the wild-type feline IL-31 and its binding was not impacted by the mutations in the 15H05 epitope region as evidenced by the data in FIG. 4. To confirm binding, biacore analysis was performed using canine, feline, equine, human, feline 15H05 mutant, and feline 11E12 mutant IL-31 proteins as surfaces and a single test concentration of antibody. Similar to ELISA observations, all antibodies tested bound to wildtype feline IL-31. In agreement with the data described above in this section, mouse antibodies 11E12 and 15H05 both bound to canine and feline IL-31 surfaces. Three additional antibodies where shown to have this dual binding property, ZIL69 (partial canine binding), ZIL94, and ZIL159. From this group of nine fully canine antibodies, only ZIL1 and ZIL9 cross-reacted with equine IL-31. Of note, antibody 15H05 was the only one of all assayed herein that bound to canine, feline, and equine IL-31 indicating some level of epitope conservation across the three species. In contrast, none of the antibodies described herein bound to human IL-31. Additional biacore surfaces were used to verify ELISA observations showing differential binding of antibodies to wildtype feline IL-31 and two proteins with mutations in the 15H05 (15H05 mutant) or 11E12 (11E12 mutant) epitopes.
Background: In SPR one partner is held on a chip, and binding of the other changes the refractive index at the surface.

The target of assay [7] is T4, mutant feline IL-31 15H05 protein (Feline_IL31_15H05_mutant) (feline).
T4 sequence: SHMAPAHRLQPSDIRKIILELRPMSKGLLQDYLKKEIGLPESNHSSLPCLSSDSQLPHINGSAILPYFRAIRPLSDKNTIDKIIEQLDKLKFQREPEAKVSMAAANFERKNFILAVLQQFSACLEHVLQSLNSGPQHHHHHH
Description: indirect ELISA, IL-31 protein coated.

Another assay concerns the target T5, human IL-31 (human, UniProt Q6EBC2 24-164).
T5 sequence: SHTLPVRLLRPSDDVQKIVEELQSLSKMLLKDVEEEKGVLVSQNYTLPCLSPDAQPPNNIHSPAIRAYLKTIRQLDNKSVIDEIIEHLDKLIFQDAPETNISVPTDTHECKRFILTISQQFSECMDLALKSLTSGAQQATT
Nature of the assay: SPR (Biacore), IL-31 surface, single antibody concentration. The method, then: as §1

B1: mouse:feline 15H05 chimera (antibody)
heavy: QVQLQQSAAELARPGASVKMSCKTSGYTFTSYTIHWIKQRPGQGLEWIGNINPTSGYTENNQRFKDKTTLTVDRSSNTAYLQLHSLTSEDSAVYFCARWGFKYDGEWSFDVWGAGTTVTVSSASTTAPSVFPLAPSCGTTSGATVALACLVLGYFPEPVTVSWNSGALTSGVHTFPAVLQASGLYSLSSMVTVPSSRWLSDTFTCNVAHPPSNTKVDKTVRKTDHPPGPKPCDCPKCPPPEAAGAPSIFIFPPKPKDTLSISRTPEVTCLVVDLGPDDSDVQITWFVDNTQVYTAKTSPREEQFNSTYRVVSVLPILHQDWLKGKEFKCKVNSKSLPSPIERTISKAKGQPHEPQVYVLPPAQEELSRNKVSVTCLIKSFHPPDIAVEWEITGQPEPENNYRTTPPQLDSDGTYFVYSKLSVDRSHWQRGNTYTCSVSHEALHSHHTQKSLTQSPGK
light: DIQMNQSPSSLSASLGDTITVTCRASQGISIWLSWYQQKPGNIPKVLINKASNLHIGVPPRFSGSGSGTHFTLTITSLQPEDIATYYCLQSQTYPLTFGGGTKLEINRSDAQPSVFLFQPSLDELHTGSASIVCILNDFYPKEVNVKWKVDGVVQNKGIQESTTEQNSKDSTYSLSSTLTMSSTEYQSHEKFSCEVTHKSLASTLVKSFQRSECQRE
notes: Mouse variable regions on feline IgG constant regions; made in HEK 293 cells; also called 15H05 mouse feline chimera
For B1, in assay [1], the “IC50, inhibition of feline IL-31-induced STAT3 phosphorylation, canine DH82 cells” value came out at 5.59 µg/mL and the “IC50, inhibition of feline IL-31-induced STAT3 phosphorylation, feline FCWF4 cells” value worked out at 3.25 µg/mL. In addition, the IC50 against canine IL-31 (pSTAT3; cell type not stated for this pair of values) in assay [2] was 28.6 µg/ml. Also, in assay [3], the Kd is 12.9 pM, the koff amounted to 1.62e-07 s⁻¹ and the association rate constant (kon) is 12600 M⁻¹ s⁻¹. For the same molecule, the “IC50 against feline IL-31 induced pSTAT3 signaling in feline FCWF4 cells, relative to the mouse:feline 11E12 chimera” value in assay [4] was approximately 2 fold.

B2: ZTS-927 (antibody)
heavy: QVLLVQSGAEVRTPGASVKIFCKASGYSFTSYTIHWLRQAPAQGLEWMGNINPTSGYTENNQRFKDRLTLTADTSTNTAYMELSSLRSADTAMYYCARWGFKYDGEWSFDVWGAGTTVTVSSASTTAPSVFPLAPSCGTTSGATVALACLVLGYFPEPVTVSWNSGALTSGVHTFPAVLQASGLYSLSSMVTVPSSRWLSDTFTCNVAHPPSNTKVDKTVRKTDHPPGPKPCDCPKCPPPEMLGGPSIFIFPPKPKDTLSISRTPEVTCLVVDLGPDDSDVQITWFVDNTQVYTAKTSPREEQFNSTYRVVSVLPILHQDWLKGKEFKCKVNSKSLPSPIERTISKAKGQPHEPQVYVLPPAQEELSRNKVSVTCLIKSFHPPDIAVEWEITGQPEPENNYRTTPPQLDSDGTYFVYSKLSVDRSHWQRGNTYTCSVSHEALHSHHTQKSLTQSPGK
light: EIQMTQSPSSLSASPGDRVTITCRASQGISIWLSWYQQKPGNIPKVLINKASNLHIGVPSRFSGSGSGTDFTLTISSLEPEDAATYYCLQSQTYPLTFGGGTKLEIKRSDAQPSVFLFQPSLDELHTGSASIVCILNDFYPKEVNVKWKVDGVVQNKGIQESTTEQNSKDSTYSLSSTLTMSSTEYQSHEKFSCEVTHKSLASTLVKSFQRSECQRE
notes: Felinized 15H05 from a single GS plasmid
Regarding B2, in assay [1], the “IC50, inhibition of feline IL-31-induced STAT3 phosphorylation, canine DH82 cells” value was 1.57 µg/mL and the “IC50, inhibition of feline IL-31-induced STAT3 phosphorylation, feline FCWF4 cells” value was determined as 5.26 µg/mL. In assay [2], the “IC50, inhibition of canine IL-31-induced STAT3 phosphorylation, canine DH82 cells” value was 23.2 µg/mL and the “IC50, inhibition of canine IL-31-induced STAT3 phosphorylation, feline FCWF4 cells” value came to 39.6 µg/mL. In assay [5], this molecule returned a dissociation constant (Kd) of 614 pM, a koff of 2.3e-05 s⁻¹ and an on-rate (kon) of 37400 M⁻¹ s⁻¹.

B3: ZIL69 (recombinant fully canine antibody) (antibody, V domains shown)
VH: EVQLVESGGDLVKPAGSLRLSCVASGFTFSSYAMKWVRQAPGKGLQWVATINNDGTRTGYADAVRGRFTISKDNAKNTLYLQMDSLRADDTAVYYCTKGNAESGCTGDHCPPYWGQGTLVTVSS
VL: SSVLTQPPSVSVSLGQTATISCSGESLNKYYAQWFQQKAGQAPVLVIYKDTERPSGIPDRFSGSSAGNTHTLTISGARAEDEADYYCESAVSSETNVFGSGTQLTVLR
notes: also called CAN-ZIL69
Take B3: the binding result in assay [6] was “no binding”. The molecule also yielded an ELISA OD in assay [7] of 0.92 OD.

B4: ZIL11 (recombinant fully canine antibody) (antibody, V domains shown)
VH: EVQLVESGGDLVKPAGSLRLSCVASGFTFRTYVMNWVRQAPGKGLQWVASINGGGSSPTYADAVRGRFTVSRDNAQNSLFLQMNSLRAEDTAVYFCVVSMVGPFDYWGQGTLVTVSS
VL: SSVLTQPPSVSVSLGQTATISCSGESLSNYYAQWFQQKAGQAPVLVIYKDTERPSGIPDRFSGSSSGNTHTLTISGARAEDEADYYCESAVSSDTIVFGGGTHLTVL
notes: also called CAN-ZIL11; copies: 2 + 2
Turning to B4, the binding result (in the assay with human IL-31; in assay [6]) was “no binding” each time. The ELISA OD in assay [7] turned out to be 0.33 OD.

B5: Feline 11E12 1.1 (antibody, V domains shown)
VH: QVLLVQSGAEVKKPGASVKIFCKASGYSFTYYDINWLRQAPEQGLEWMGWIFPGDGGTKYNETFKGRLTLTADTSTNTVYMELSSLRSADTAMYYCARGGTSVIRDAMDYWGQGALVTVSS
VL: EIQMTQSPSSLSASPGDRVTITCRASESVDNYGISFMHWYQQKPGKVPKLLIYRASNLESGVPSRFSGSGSGTDFTLTISSLEPEDAATYYCQQSNKDPLTFGQGT
notes: Variable chains were subcloned into plasmids with 'the respective feline heavy or kappa constant region'; Made in HEK 293 cells; also called Felinized 11E12 1.1; felinized 11E12
In assay [3], B5 registered a koff of 0.000141 s⁻¹ and an on-rate (kon) of 185000 M⁻¹ s⁻¹. Besides, the “potency against feline IL-31 in the feline FCWF assay (pSTAT3)” value in assay [4] is approximately 2 fold. In assay [5], this molecule had a Kd of 22200 pM, a koff of 0.000444 s⁻¹ and a kon of 20000 M⁻¹ s⁻¹.

B6: ZIL9 (recombinant fully canine antibody) (antibody, V domains shown)
VH: EVQLVESGGDLVKPPGSLRLSCVASGFTFSSYDMTWVRQAPGKGLQWVADVNSGGTGTAYAVAVKGRFTISRDNAKKTLYLQMNSLRAEDTAVYYCAKLGVRDGLSVWGQGTLVTVSS
VL: SSVLTQPPSVSVSLGQTATISCSGESLNEYYTQWFQQKAGQAPVLVIYRDTERPSGIPDRFSGSSSGNTHTLTISGARAEDEADYYCESAVDTGTLVFGGGTHLAVLR
For the molecule B6, in assay [7], the ELISA OD is 0.73 OD.

B7: ZIL171 (recombinant fully canine antibody) (antibody, V domains shown)
VH: EVQLVESGGDLVKPAGSLRLSCVASGFTFRTYVMNWVRQAPGKGLQWVASINGGGSSPTYADAVRGRFTVSRDNAQNSLFLQMNSLRAEDTAIYFCVVSMVGPFDYWGHGTLVTVSS
VL: SSVLTQPPSVSVSLGQTATISCSGKSLSYYYAQWFQQKAGQAPVLVIYKDTERPSGIPDRFSGSSSGNTHTLTISGARAEDEADYYCESAVSSDTIVFGGGTHLTVLR
notes: also called CAN-ZIL171
On to B7, for which, in assay [6], the binding result is given as “no binding”.

B8: ZIL1 (recombinant fully canine antibody) (antibody, V domains shown)
VH: EVQLVESGGDLVKPGGSLRLSCVASGFTFSSYGMSWVRQAPGKGLQWVAHINSGGSSTYYADAVKGRFTISRDNAKNTLYLQMNSLRAEDTAVYYCVEVYTTLAAFWTDNFDYWGQGTLVTVSS
VL: QSVLTQPTSVSGSLGQRVTISCSGSTNNIGILAATWYQQLPGKAPKVLVYSDGNRPSGVPDRFSGSKSGNSATLTITGLQAEDEADYYCQSFDTTLDAYVFGSGTQLTVLR
In assay [7], B8 displayed an ELISA OD of 0.92 OD.

B9: ZIL8 (recombinant fully canine antibody) (antibody, V domains shown)
VH: EVQLVESGGDLVKPAGSLRLSCVASGFTFSDYAMSWVRQAPGRGLQWVAGIDSVGSGTSYADAVKGRFTISRDDAKNTLYLQMFNLRAEDTAIYYCASGFPGSFEHWGQGTLVTVSS
VL: QSVLTQPASVSGSLGQKVTISCTGSSSNIGSGYVGWYQQLPGTGPRTLIYYNSDRPSGVPDRFSGSRSGTTATLTISGLQAEDEADYYCSVYDRTFNAVFGGGTHLTVL
notes: also called CAN-ZIL8; copies: 2 + 2
Turning to B9, the binding result (with human IL-31; in assay [6]) was “no binding” throughout.
